Numbering of substitutions follows the chain as printed.

In the assay the target is T1, cynomolgus monkey FcγRIIIaS extracellular domain with C-terminal His-tag (cynomolgus monkey, UniProt Q8SPW2 21-206 at identity 1.00)).
T1 construct: also called cyno FcgRIIIaS; cynoFcγRIIIaS
T1 chain: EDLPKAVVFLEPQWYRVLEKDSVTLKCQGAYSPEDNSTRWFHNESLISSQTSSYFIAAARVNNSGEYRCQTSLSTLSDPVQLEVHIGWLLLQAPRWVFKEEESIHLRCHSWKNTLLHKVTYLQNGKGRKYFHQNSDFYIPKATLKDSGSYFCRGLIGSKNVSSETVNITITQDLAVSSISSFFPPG
The assay can be described thus: SPR (BIACORE); KD of SG1 / KD of variant. (SPR reads the build-up and loss of mass on a sensor chip optically.)
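Further: relative to parent M103205H795-SG1 carrying the SG1 human heavy chain constant region.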

B1: M103205H795-MY515/M103202L889-SK1 (antibody, human IgG1, kappa)
heavy: QVTLKESGPVLVKPTETLTLTCTVSGIDLSHDDISWVRQAPGKGLEWVGIISYAGSTYYASWAKGRLTISKDTSKNQVVLTMTNMDPVDTATYYCARGVPAYSHGGDLWGQGTLVTVSSASTKGPSVFPLAPSSKSTSGGTAALGCLVKDYFPEPVTVSWNSGALTSGVHTFPAVLQSSGLYSLSSVVTVPSSSLGTQTYICNVNHKPSNTKVDKKVEPKSCDKTHTCPPCPAPELLTGPSVFLFPPKPKDTLMISRTPEVTCVVVDVSDEDPEVKFNWYVDGVEVHNAKTKPREELYNLTYRVVSVLTVLHQDWLNGKEYKCKVSNKALPKPIEKTISKAKGQPREPQVYTLPPSREEMTKNQVSLTCLVKGFYPSDIAVEWESNGQPENNYKTTPPVLDSDGSFFLYSKLTVDKSRWQQGNVFSCSVMHEALHNHYTQKSLSLSP
light: DIVMTQSPATLSLSPGERATLSCTSSQSVYHANWLSWFQQKPGQPPKLLIYWASTLAYGVPSRFSGSGSGTDFTLTISSLQPEDAATYYCAGGYGGGRYAFGQGTKVEIKRTVAAPSVFIFPPSDEQLKSGTASVVCLLNNFYPREAKVQWKVDNALQSGNSQESVTEQDSKDSTYSLSSTLTLSKADYEKHKVYACEVTHQGLSSPVTKSFNRGEC
notes: Substitutions introduced into M103205H795-SG1, expressed with M103202L889-SK1 as light chain; EU numbering
For the molecule B1, the “KD fold (SG1 = 1)” value came to 0.09 fold.

B2: M103205H795-MY526/M103202L889-SK1 (antibody, human IgG1, kappa)
heavy: B1 heavy with A233T, S241V, L300S
light: B1 light
notes: as for B1
As to B2, the “KD fold (SG1 = 1)” value worked out at 0.23 fold.

B3: M103205H795-MY523/M103202L889-SK1 (antibody, human IgG1, kappa)
heavy: B1 heavy with A233G, S241V, L300S
light: B1 light
notes: as for B1
B3: the “KD fold (SG1 = 1)” value worked out at 0.17 fold.

B4: M103205H795-MY529/M103202L889-SK1 (antibody, human IgG1, kappa)
heavy: B1 heavy with L236W, L300S
light: B1 light
notes: as for B1
Regarding B4, the “KD fold (SG1 = 1)” value was found to be 0.16 fold.

B5: M103205H795-MY528/M103202L889-SK1 (antibody, human IgG1, kappa)
heavy: B1 heavy with L236W, L297Q, L300S
light: B1 light
notes: as for B1
With B5, the “KD fold (SG1 = 1)” value was determined as 0.15 fold.

B6: M103205H795-MY531/M103202L889-SK1 (antibody, human IgG1, kappa)
heavy: B1 heavy with L236W, L297Q, L300S, K328T
light: B1 light
notes: as for B1
For the molecule B6, the “KD fold (SG1 = 1)” value amounted to 0.36 fold.

B7: M103205H795-MY521/M103202L889-SK1 (antibody, human IgG1, kappa)
heavy: B1 heavy with P234D, L300S
light: B1 light
notes: as for B1
B7: the “KD fold (SG1 = 1)” value amounted to 0.16 fold.

B8: M103205H795-MY520/M103202L889-SK1 (antibody, human IgG1, kappa)
heavy: B1 heavy with P234D, S241V, L300S
light: B1 light
notes: as for B1
Turning to B8, the “KD fold (SG1 = 1)” value came out at 0.18 fold.

B9: M103205H795-MY530/M103202L889-SK1 (antibody, human IgG1, kappa)
heavy: B1 heavy with L297Q, L300S, K328T
light: B1 light
notes: as for B1
Regarding B9, the “KD fold (SG1 = 1)” value is 0.42 fold.

B10: M103205H795-MY525/M103202L889-SK1 (antibody, human IgG1, kappa)
heavy: B1 heavy with A233T, S241V, L297Q, L300S
light: B1 light
notes: as for B1
As to B10, the “KD fold (SG1 = 1)” value is 0.26 fold.

B11: M103205H795-MY527/M103202L889-SK1 (antibody, human IgG1, kappa)
heavy: B1 heavy with A233T, L300S
light: B1 light
notes: as for B1
On to B11, for which the “KD fold (SG1 = 1)” value worked out at 0.24 fold.

B12: M103205H795-MY532/M103202L889-SK1 (antibody, human IgG1, kappa)
heavy: B1 heavy with L236W, S241V, L297Q, L300S
light: B1 light
notes: as for B1
Take B12: the “KD fold (SG1 = 1)” value worked out at 0.42 fold.

B13: M103205H795-MY516/M103202L889-SK1 (antibody, human IgG1, kappa)
heavy: B1 heavy with S241V
light: B1 light
notes: as for B1
In the case of B13, the “KD fold (SG1 = 1)” value amounted to 0.12 fold.

B14: M103205H795-MY524/M103202L889-SK1 (antibody, human IgG1, kappa)
heavy: B1 heavy with A233G, L300S
light: B1 light
notes: as for B1
For B14, the “KD fold (SG1 = 1)” value came out at 0.18 fold.

B15: M103205H795-MY522/M103202L889-SK1 (antibody, human IgG1, kappa)
heavy: B1 heavy with A233G, S241V, L297Q, L300S
light: B1 light
notes: as for B1
B15: the “KD fold (SG1 = 1)” value was determined as 0.19 fold.

These data come from patent US20200317768A1 (published 2020).
